Measured values from patent publication US20240093191A1, “COMPOSITIONS AND METHODS FOR TREATING DISEASE ASSOCIATED WITH DUX4 OVEREXPRESSION” (RESEARCH INSTITUTE AT NATIONWIDE CHILDREN'S HOSPITAL, priority 2021, published 2024).

Key:
[1] = test system: mi405 mature sequence; assay: QPCR of mature mi405 (standard TaqMan cDNA synthesis) in HEK293 cells; assay type: cell-based, human; conditions: 24 h after transfection
Method: TaqMan Gene Expression Assay. QRT-PCR was carried out to quantify the expression of pri-mir-675, mir-675-5p and mi405 using TaqMan probes (ThermoFisher Scientific). Experiments were started by eliminating genomic DNA from the RNA preparations, and then cDNA was generated using the High-Capacity cDNA Reverse Transcription Kit (Applied Biosystems) following manufacturer's instructions. Within the same cDNA reaction, 1×RT random hexamer primers were used to generate the cDNA for RPL13A, used as a reference gene, and for pri-mir-675. To generate the cDNA for mir-675, the RT mir-675 reverse primer provided by ThermoFisher Scientific was used. For mi405, the mi405 qPCR protocol was done as it was previously described [Wallace et al., Mol. Ther. Methods Clin. Dev. 8: 121-30 (2018)]. To quantify mir-675 and mi405 levels, RNA was extracted using the total RNA protocol for the mirVana miRNA Isolation Kit (Ambion) from HEK293 cells. cDNA was generated using the High-Capacity cDNA Reverse Transcription Kit (Applied Biosystems) using a mix of random hexamer primers and specific reverse primer for pri-mir-675 and mir-675-5p. For mi405, 200 nM of the stem-loop forming primer (5′-[…]-3′) (SEQ ID NO: 144) was also used for the RT step. A custom TaqMan assay (Applied Biosystems) including 1.5 μM of Forward primer (5′-[…]-3′) (SEQ ID NO: 145), 0.7 μM of Reverse primer (5′-GTGCAGGGTCCGAGGT-3′) (SEQ ID NO: 146), and 0.2 μM of mi405 probe (5′-6FAM-ATACGACGTCCAGGAT-3′) (SEQ ID NO: 147) was then run using the CFX Connect Real Time system apparatus (Bio-Rad). RPL13A (Mm02526700_g1; Applied Biosystems) served as the reference gene. The TaqMan gene expression assay consisted of using the TaqMan Gene Expression Master mix and TaqMan probes purchased from ThermoFisher Scientific. 1× of probe was mixed with 1× of the TaqMan Gene Expression Master mix (ThermoFisher Scientific), and with 20 ng of cDNA. The mir-675- and mi405-specific primers and probes were designed to quantify only the mir-675-5p and mi405 mature sequence (see TaqMan Gene Expression Master mix protocol).
Apart from the effect on the inhibition efficiency of mi405, the effect of the flanking sequences on the expression of the miRNA also was tested. Therefore, the expression of the processed mature mi405 sequences was quantified using the standard and advanced TaqMan cDNA synthesis reaction. In the former reaction, a reverse primer detects the mature mi405 sequence following a stem-loop primer-based small RNA detection principle (ThermoFisher Scientific) (Jung et al., RNA (2013) 19: 1-10). The amplification and quantification steps were then performed using a standard TaqMan probe specific to mi405 that base pairs at the junction between the mi405 mature sequence and the reverse primer sequence (FIG. 6A). […] In the TaqMan advanced cDNA synthesis reaction, the mature sequence is extended through ligation of an adaptor sequence at the 5′ end and through the enzymatic addition of a polyA tail at the 3′ end of the mature mi405 sequence. The amplification and quantification steps were then performed using a TaqMan advanced probe specific to mi405 that normally base pairs with the 3′ end of the mature miRNA and with part of the adaptor sequence. Here, an additional TaqMan advanced probe (embedded probe) that only base pairs with the mature sequence of mi405 (FIG. 6B) was used. As a result, following TaqMan advanced cDNA synthesis reaction, droplet digital PCR (ddPCR) was performed to quantify mi405, mi405F, mi405B, mi405C, mi405G and mi405H expression levels. For this, TaqMan advanced embedded and overlapped mi405 probes (FIG. 6B) were used.

[2] = test system: DUX4-induced muscle toxicity; assay: mi405 constructs (scAAV6) co-injected with AAV.CMV.DUX4-FL in mouse TA, H&E; assay type: in vivo, mouse (C57BL/6); conditions: scAAV6, 5e09 DRP co-injected with 5e09 DRP AAV.CMV.DUX4-FL, 8 weeks
Method: AAV Vector Delivery to Mice. (See also FIGS. 15A-B and 32A-B.) For determining bioactivity, 6- to 9-week-old C57BL/6 male and female mice received direct 35 μL IM injections into the TA. Mice received adeno-associated virus scAAV6.CMV.DUX4-FL at 5×10^9 DNase-resistant particles (DRP) co-injected with scAAV6.CMV.eGFP at 1×10^10 DRP, and a contralateral co-injection of scAAV6.CMV.DUX4-FL at 1×10^9 DRP or 5×10^9 DRP and scAAV6.U6.mir-675 at 5×10^10 DRP. To test toxicity of mir-675, the tibialis anterior (TA) was intramuscularly injected with increasing doses of scAAV6.U6.mir-675 at 5×10^10 DRP and 1×10^11 DRP, and injected contralateral TA with saline. To test mi405 toxicity, the TA was intramuscularly injected with 5×10^8 DRP, 5×10^9 DRP and 5×10^10 DRP of scAAV6.U6.mi405F, scAAV6.U6.mi405G or scAAV6.U6.mi405H and injected contralateral TA with saline. To test mi405 inhibition efficiency, the TA was co-injected with scAAV6.CMV.DUX4-FL at 5×10^9 DRP and scAAV6.U6.mi405F, G or H at 5×10^8 DRP, 5×10^9 DRP or 5×10^10 DRP. For this, a contralateral injection of either scAAV6.U6.mi405F, G or H or of scAAV6.CMV.DUX4-FL at 5×10^9 DRP was carried out. For mi405, all injections were compared to scAAV6.U6.mi405. Muscles were harvested at 2, 4 or 8 weeks post-injection. All animal studies were performed according to the NIH Guide for the Care and Use of Laboratory Animals.
Histology. (See also FIGS. 15A-B and 32A-B.) Dissected TA muscles were placed in O.C.T. Compound (Tissue-Tek) and frozen on liquid nitrogen-cooled isopentane. Cryosections were cut at 10 μm and then stained with H&E following standard protocols [Harper et al., Nat Med (2002) 8(3):253-61].
U6.mi405, U6.mi405F, U6.mi405G and U6.mi405H were co-injected using scAAV6 with AAV.CMV.DUX4-FL at equivalent doses (5e09 DNase Resistant Particles (DRP)) in the TA of C57BL/6 mice. This experiment was performed to investigate the efficiency of the four mi405 constructs to eliminate DUX4-induced muscle toxicity in vivo at doses equivalent to that of AAV.CMV.DUX4-FL. Previously, Wallace et al. [Wallace et al, Ann. Neurol. […]

B1: U6.mi405G: mi405 construct with altered flanking sequences (nucleic acid)
DNA: ACGCCGCCATCTCTAGGCCCGCGCCGGCCCCCTCGCACAGACTTGTGGGAGAAGCTCGGCTACTCCCCTGCCCCGGTTAATTTGCATATAATATTTCCTAGTAACTATAGAGGCTTAATGTGCGATAAAAGACAGATAATCTGTTCTTTTTAATACTAGCTACATTTTACATGATAGGCTTGGATTTCTATAAGAGATACAAATACTAAATTATTATTTTAAAAAACAGCACAAAAGGAAACTCACCCTAACTGTAAAGTAATTGTGTGTTTTGAGACTATAAATATCCCTTGGAGAAAAGCCTTGTTTGACCGTTTAAACTCGAGTGAGCGATCCAGGATTCAGATCTGGTTTCTGTAAAGCCACAGATGGGAAACCAGATCTGAATCCTGGACTGCCTACTAGAGAATTCTTCGATTCTGCTTTTTT
[1]
  levels of mature mi405 sequence compared to U6.mi405: greater or higher with the difference not being statistically significant
[2]
  efficiency in eliminating DUX4-induced muscle toxicity compared to mi405: more efficient than mi405

B2: U6.mi405H: mi405 construct with altered flanking sequences (nucleic acid)
DNA: ACGCCGCCATCTCTAGGCCCGCGCCGGCCCCCTCGCACAGACTTGTGGGAGAAGCTCGGCTACTCCCCTGCCCCGGTTAATTTGCATATAATATTTCCTAGTAACTATAGAGGCTTAATGTGCGATAAAAGACAGATAATCTGTTCTTTTTAATACTAGCTACATTTTACATGATAGGCTTGGATTTCTATAAGAGATACAAATACTAAATTATTATTTTAAAAAACAGCACAAAAGGAAACTCACCCTAACTGTAAAGTAATTGTGTGTTTTGAGACTATAAATATCCCTTGGAGAAAAGCCTTGTTTGACCGTTTAAACTCGAGTGAGCGATCCAGGATTCAGATCTGGTTTCTGTAAAGCCACAGATGGGAAACCAGATCTGAATCCTGGACTGCCTACTAGAGCGCACGCCAGTTTTTT
[1]
  levels of mature mi405 sequence compared to U6.mi405: greater or higher with the difference not being statistically significant
[2]
  efficiency in eliminating DUX4-induced muscle toxicity compared to mi405: more efficient than mi405

B3: U6.mi405F: mi405 with one G at 5' end and 16 mer 3' flanking sequence with single CNNC motif (nucleic acid)
DNA: ACGCCGCCATCTCTAGGCCCGCGCCGGCCCCCTCGCACAGACTTGTGGGAGAAGCTCGGCTACTCCCCTGCCCCGGTTAATTTGCATATAATATTTCCTAGTAACTATAGAGGCTTAATGTGCGATAAAAGACAGATAATCTGTTCTTTTTAATACTAGCTACATTTTACATGATAGGCTTGGATTTCTATAAGAGATACAAATACTAAATTATTATTTTAAAAAACAGCACAAAAGGAAACTCACCCTAACTGTAAAGTAATTGTGTGTTTTGAGACTATAAATATCCCTTGGAGAAAAGCCTTGTTTGCTCGAGTGAGCGATCCAGGATTCAGATCTGGTTTCTGTAAAGCCACAGATGGGAAACCAGATCTGAATCCTGGACTGCCTACTAGTAATTCTTCGATTCTGCTTTTTT
[1]; normalized to RPL13A
  reduction of mature mi405 sequence expression relative to U6.mi405: 85±5%
[2]
  efficiency in eliminating DUX4-induced muscle toxicity compared to mi405: no enhanced inhibition efficiency in vivo when compared to mi405
